The target in one experiment is Sla2 ANTH domain (S. cerevisiae), wild type. The experiment can be described thus: DLS. The conditions noted are these: complexes assembled in the presence of PIP2; parent: est. 100; read off a plot.
As for “Ent1 ENTH domain (S. cerevisiae), wild type (from UniProt Q12518) E54A; D57A; D60A”, the response is 100 % mass.
Same read-out and setting: the figure for “Ent1 ENTH domain (S. cerevisiae), wild type (from UniProt Q12518) E107A” is 75 % mass.
On the same count and under the same terms, the value for “Ent1 ENTH domain (S. cerevisiae), wild type (from UniProt Q12518) Y100R” was 37 % mass.

The target in another experiment is Ent1 ENTH domain (S. cerevisiae), wild type (UniProt Q12518). The experiment can be described thus: DLS. The note with it: complexes assembled in the presence of PIP2; parent: est. 100; read off a plot.
UniProt Q12518, sequence (Q12518 whole entry, looked up, the tested form may be a part): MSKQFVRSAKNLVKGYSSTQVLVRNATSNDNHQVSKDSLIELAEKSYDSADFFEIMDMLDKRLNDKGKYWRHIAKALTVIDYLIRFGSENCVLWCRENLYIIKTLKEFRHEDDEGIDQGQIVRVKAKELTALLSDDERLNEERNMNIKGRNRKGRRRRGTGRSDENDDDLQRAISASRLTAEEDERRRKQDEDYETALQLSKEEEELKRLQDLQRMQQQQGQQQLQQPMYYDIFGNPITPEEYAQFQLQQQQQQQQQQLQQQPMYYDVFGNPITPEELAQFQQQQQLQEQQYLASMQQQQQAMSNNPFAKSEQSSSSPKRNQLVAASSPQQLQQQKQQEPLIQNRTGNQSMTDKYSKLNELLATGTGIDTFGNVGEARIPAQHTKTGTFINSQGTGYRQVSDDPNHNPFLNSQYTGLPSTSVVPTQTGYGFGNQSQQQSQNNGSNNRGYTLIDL
Regarding “Sla2 ANTH domain (S. cerevisiae), wild type Q9A; K10A”, the response turned out to be 100 % mass.
Same read-out and setting: the value for “Sla2 ANTH domain (S. cerevisiae), wild type R3A” was 21 % mass.
In the case of “Sla2 ANTH domain (S. cerevisiae), wild type R29A”, the response worked out at 27 % mass.
Regarding “Sla2 ANTH domain (S. cerevisiae), wild type R25A”, the response was 32 % mass.
On the same count and under the same terms, the value for “Sla2 ANTH domain (S. cerevisiae), wild type K10A; K13A; K14A” was 28 % mass.
Consider “Sla2 ANTH domain (S. cerevisiae), wild type R3A; I4A; D37R”, for which the response was 100 % mass.
